# Tests used:
# [1] = molecular target: T1, human PD-L1^ECD-hFc protein (human, UniProt Q9NZQ7 19-239, biotinylated in the PD-1 binding ELISA (Table 3) and in the Octet assay (Table 12)); assay: ELISA, 10 nM mAb
# T1 construct: The plain and the biotinylated protein are kept as one molecule; also called PD-L1-hFc; Immunogen A; not shown: human IgG Fc fragment (hFc)
# Description: (§1) 100 μL of the diluted recombinant proteins were added to each well of 96-well plate. The plates were sealed with plastic film and incubated at 4° C. overnight. The plates were washed twice with wash buffer (PBS+0.01% (v/v) Tween20), and incubated with blocking buffer (PBS+0.01% (v/v) Tween20+1% (w/w) BSA) at room temperature for 2 hours. The blocking buffer was aspirated away, and 100 μL of purified anti-PD-L1 antibodies were added to each well and incubated for 2 hours at 37° C. The plates were washed three times with wash buffer (PBS+0.01% (v/v) Tween20). HRP-conjugated secondary antibody (Sigma) was added to each well and incubated for 2 hours at 37° C. After the plates were washed three times with wash buffer, 100 μL TMB substrate were added to each well, and the plates were incubated for 30 minutes at room temperature. 100 μL stop solution (0.1N HCl) was added to each well to stop the reaction.
# [2] = molecular target: T2, cyno PD-L1^ECD-hFc protein (cyno, UniProt G7PSE7 19-239); assay: ELISA, 10 nM mAb
# T2 construct: also called Cyno Monkey PD-L1^ECD-hFc
# T2 sequence (G7PSE7 entry or part of it limits assumed): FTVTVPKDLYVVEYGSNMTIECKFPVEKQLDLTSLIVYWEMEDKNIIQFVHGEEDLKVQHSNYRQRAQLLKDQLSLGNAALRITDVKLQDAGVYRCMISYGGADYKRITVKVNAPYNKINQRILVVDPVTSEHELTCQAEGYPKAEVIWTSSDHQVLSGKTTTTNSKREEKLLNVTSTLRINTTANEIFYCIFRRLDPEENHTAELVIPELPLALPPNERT
# Description: as §1
# [3] = molecular target: T1, human PD-L1^ECD-hFc protein; assay: ELISA, 30 nM mAb
# Description: as §1
# [4] = molecular target: T2, cyno PD-L1^ECD-hFc protein; assay: ELISA, 30 nM mAb
# Description: as §1
# [5] = molecular target: T3, full length human PD-L1 on cells (human, UniProt Q9NZQ7 19-290); assay: cell-based or functional assay
# T3 sequence (Q9NZQ7 19-290 limits assumed): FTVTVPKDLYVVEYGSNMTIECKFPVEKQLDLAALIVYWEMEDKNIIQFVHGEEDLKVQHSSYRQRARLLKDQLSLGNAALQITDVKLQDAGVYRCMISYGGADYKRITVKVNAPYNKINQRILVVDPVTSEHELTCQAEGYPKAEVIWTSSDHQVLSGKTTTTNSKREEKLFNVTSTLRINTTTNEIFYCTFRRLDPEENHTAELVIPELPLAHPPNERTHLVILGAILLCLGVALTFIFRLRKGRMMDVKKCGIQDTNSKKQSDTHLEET
# [6] = molecular target: T3, full length human PD-L1 on cells; assay: FACS CHO-K1-hPD-L1, 11.11 nM mAb
# [7] = molecular target: T3, full length human PD-L1 on cells; assay: FACS CHO-K1-hPD-L1, 100.00 nM mAb
# [8] = molecular target: T4, full length cyno PD-L1 on cells (cyno, UniProt G7PSE7 19-290); assay: FACS CHO-K1-cPD-L1, 100.00 nM mAb
# T4 construct: also called CHO-K1-cPD-L1
# T4 sequence (G7PSE7 entry or part of it limits assumed): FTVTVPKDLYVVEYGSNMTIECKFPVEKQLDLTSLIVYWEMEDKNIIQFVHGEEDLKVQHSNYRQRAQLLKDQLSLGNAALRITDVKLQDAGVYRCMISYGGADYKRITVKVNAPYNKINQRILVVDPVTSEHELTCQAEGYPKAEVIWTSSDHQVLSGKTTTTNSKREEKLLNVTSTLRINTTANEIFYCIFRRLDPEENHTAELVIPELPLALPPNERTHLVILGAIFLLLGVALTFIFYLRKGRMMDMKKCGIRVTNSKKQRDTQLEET
# Description: (§2) Other CHO-K1 were stably transfected with a pIRES plasmid containing the nucleic acid sequence encoding full length cyno PD-L1 to generate CHO-K1 cells stably expressing cyno PD-L1 (herein referred to as CHO-K1-cPD-L1 cells). […] The culture media was aspirated, and the cells were washed twice with HBSS (Hanks Balanced Salt Solution, Invitrogen). The cells were treated with enzyme-free cell dissociation solution (Versene solution, Invitrogen) and collected. The cells were then washed twice with HBSS, cell counts were determined, and cells were resuspended with HBSS at 2×10⁶ cells/mL. Goat serum was added to the cell suspension to a final concentration of 1%, and the cells were blocked for 30 minutes on ice and then washed twice with HBSS. The cells were collected after centrifugation and resuspended in FACS buffer (HBSS+1% BSA, v/v) at 2×10⁶ cells/mL. 100 μL of the cell suspension were then added to each well of 96-well plate. 100 μL of purified anti-PD-L1 antibodies from Example 2 were added to each well of the 96-well plate and incubated for 2 hours on ice. […] The samples were washed three times with FACS buffer, and 100 μL fixation buffer (4% paraformaldehyde v/v) were added to each well and incubated for 10 minutes. The cells were then washed twice with FACS buffer and resuspended in 100 μL FACS buffer. The mean fluorescence intensity (MFI) was determined using FACS Calibur (BD), and the results are shown in FIGS. 7-8 and in Tables 10-11.
# [9] = molecular target: T1, human PD-L1^ECD-hFc protein; assay: BLI Octet Red 96, biotinylated PD-L1-hFc on SA sensor
# Description: Dissociation constants were determined by Octed red 96 (Fortiebio). The detailed operation and methods were followed according to the specifications of the instrument provided by the manufacturer. Briefly, a streptavidin sensor (SA sensor, Fortiebio) was used for the affinity determination. […] The reaction mixture was further incubated in PBS buffer (pH 7.4) containing 0.1% (v/w) BSA and 0.02% (v/v) Tween20 at 30° C. for 5 minutes.
# [10] = molecular target: T1, human PD-L1^ECD-hFc protein; assay: ELISA receptor-ligand blocking assay: PD-L1^ECD-hFc coated on the plate, antibody titrated, blocked ligand biotinylated PD-1^ECD, HRP-streptavidin, inhibition rate (%)
# Description: Purified PD-L1^ECD-hFc (Example 2) was diluted with PBS to a final concentration of 1.0 μg/mL, and 100 μL diluted PD-L1^ECD-hFc were added to each well of a 96-well plate that was then sealed with plastic film and incubated at 4° C. overnight. The plate was washed twice with wash buffer (PBS+0.01% (v/v) Tween 20) and incubated with blocking buffer (PBS+[…]) at room temperature for 2 hours. The blocking buffer was aspirated, and 50 μL purified anti-PD-L1 antibodies from Example 2 were added to each well of 96-well plate. […] The plate was washed three times with wash buffer (PBS+0.01% (v/v) Tween 20). 100 μL HRP-conjugated streptavidin (Sigma) were then added to each well and incubated at 37° C. for 2 hours. The plate was then washed three times with wash buffer, and 100 μL TMB substrate were added to each well. After 30 minutes of incubation at room temperature, the reaction was stopped by adding 100 μL stop solution (0.1N HCl).
# [11] = molecular target: T3, full length human PD-L1 on cells; assay: FACS CHO-K1-hPD-L1, 10 nM mAb
# Description: as §2
# T1 sequence (Q9NZQ7 19-239): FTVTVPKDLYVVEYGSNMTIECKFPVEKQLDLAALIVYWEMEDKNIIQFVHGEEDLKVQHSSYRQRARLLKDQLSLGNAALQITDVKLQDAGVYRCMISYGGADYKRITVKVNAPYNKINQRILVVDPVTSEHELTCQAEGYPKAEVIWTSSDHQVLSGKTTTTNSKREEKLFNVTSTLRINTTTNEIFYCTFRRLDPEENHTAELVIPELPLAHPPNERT
OD450 nm [1],OD450 nm [2],OD450 nm [3],OD450 nm [4],"IFN-γ (pg/mL), PBMC stimulation, 0.001 µg/mL mAb [5] [pg/mL]","IFN-γ (pg/mL), PBMC stimulation, 0.01 µg/mL mAb [5] [pg/mL]","IFN-γ (pg/mL), PBMC stimulation, 0.1 µg/mL mAb [5] [pg/mL]","IFN-γ (pg/mL), PBMC stimulation, 1 µg/mL mAb [5] [pg/mL]",Mean fluorescence intensity [6],Mean fluorescence intensity [7],Mean fluorescence intensity [8],Kd [9] [nM],koff [9] [s⁻¹],kon [9] [M⁻¹ s⁻¹],IC50 (read off the curve) [10] [nM],"IFN-γ (pg/mL), PBMC stimulation, 10 µg/mL mAb [5] [pg/mL]",Mean fluorescence intensity [11],Binder
2.09,2.09,1.81,1.81,3830,3280,9560,8760,114,124,137,< 0.001,< 1e-07,398000,~0.5,–,–,"chimeric anti-PD-L1 antibody 73D3G2 (antibody, V domains shown, Purified from hybridoma of Harbour H2L2 mice: human variable regions, rat constant regions) VH: EVQLVESGGGLVQPGGSLRLSCAASGFTFNTYWMNWVRQAPGRGLEWVANIKQDGGEKYYVDSVKGRFTISRDNAKNSLYLQMNSLRAEDTAMYYCARDGRSWYPDAFDIWGQGTVVTVSS VL: DIQMTQSPSTLSASVGDRVTITCRASQSISTWLAWYQQKLGKAPKLLIYEVSILESGVPSRFSGSGSGTEFTLTISSLQPDDFATYYCQQYHSFSSFGGGTRVEIK"
2.69,–,–,–,602,501,7470,8300,–,146,87.9,0.0519,2.63e-05,506000,–,15700,134,"chimeric anti-PD-L1 antibody 192D9E7 (antibody, V domains shown, Purified from hybridoma of Harbour H2L2 mice: human variable regions, rat constant regions) VH: EVQLVESGGGLVQPGGSLRLSCAASGFTFSSYWMSWVRQAPGKGLEWVADIKQDGSEKYYVDSVKGRFTISRDNAKNSLYLQMNSLRAEDTAVYYCTRDKPHWGGVMDAWGQGTSVTVSS VL: not shown"
1.72,2.07,1.95,2.06,3740,11100,6100,13000,210,232,144,0.148,3.64e-05,245000,–,–,–,"chimeric anti-PD-L1 antibody 78A11F6 (antibody, V domains shown, Purified from hybridoma of Harbour H2L2 mice: human variable regions, rat constant regions) VH: EVQLVESGGGLVQPGGSLRLSCAASGITFSSYWMSWVRQTPGKGLEWVANIKQDGSEKYYVKSVKGRFTISRDNAKNSLYLQMNSLRAEDTAVYYCVRDRAVPGTGAFDIWGQGTMVIVSS VL: DIQMTQSPSTLSASVGDRVTITCRASQSISNWLAWYQQKPGKAPKLLIYKASSLESGVPSRFSGSGSGTEFTLTISSLQPDDFATYYCQQYDSSLFTFGQGTKLEIK"
2.73,–,–,–,2400,5700,6290,7860,–,215,107,0.116,3.95e-05,341000,~0.4,10700,213,"chimeric anti-PD-L1 antibody 73G11B3 (antibody, V domains shown, Purified from hybridoma of Harbour H2L2 mice: human variable regions, rat constant regions) VH: EVQLVESGGGLVQPGGSLRLSCVVSGFTFSSYWMSWVRQTPGKGLEWVANIKQDGSEKYYVDSVKGRLTISRDNAKNSLYLQMNSLRAEDTAVYYCVRDRAVPGTGALDIWGQGTMVTVSS VL: not shown"
1.56,1.56,1.53,1.53,1640,3380,5850,7570,201,182,120,0.245,0.000368,1.5e+06,–,–,–,"chimeric anti-PD-L1 antibody 105C5D7 (antibody, V domains shown, Purified from hybridoma of Harbour H2L2 mice: human variable regions, rat constant regions) VH: EVQLVESGGGLVQPGGSLRLSCAASGFTFSSYWMSWVRQAPGKGLEWVANIKQDGNEKYYVDSVKGRFTISRDNAKNSLYLQMNSLRAEDTAVYYCARNIKWGDAFDIWGQGTMVTVSS VL: DIQMTQSPSSLSASVGDRVTITCRASQSISSYLNWYQQKPGKAPKLLIYAASSLQSGVPSRFSGSGSGTDFTLTISSLQPEDFAIYSCQQSYSIPLTFGGGTKVEIK"
2.7,–,–,–,3380,7030,7610,8100,–,234,117,< 0.001,< 1e-07,368000,~0.3,10100,235,"chimeric anti-PD-L1 antibody 127D2F3 (antibody, V domains shown, Purified from hybridoma of Harbour H2L2 mice: human variable regions, rat constant regions) VH: EVQLVESGGGLVQPGGSLRLSCVASGFTFSSYWMSWVRQAPGKGLEWVANIKQDGSEKYYVDSVKGRLTISRDNAKNSLYLQMKSLRAEDTAVYYCARDPIYSSYFDYWGQGILVTVSS VL: DIQMTQSPSSLSASVGDRVTITCRASQSISNYLNWYQQKPGKAPKLLIYAASSLQSGVPSRFSGSGSGTDFTLTISSLQPEDFAAYYCQQSYGIPFTFGPGTKVDIK"
